The target in this assay is recombinant soluble HEK4 binding protein purified from CHO/HL6 cell-conditioned medium (human) (UniProt P52803). Description: BIAcore competition: soluble receptor extracellular domain preincubated with 0.250 µg/ml HEK4 BP, binding to immobilized HEK4 receptor.
UniProt P52803, sequence (P52803 20-198 limits assumed, form in doubt): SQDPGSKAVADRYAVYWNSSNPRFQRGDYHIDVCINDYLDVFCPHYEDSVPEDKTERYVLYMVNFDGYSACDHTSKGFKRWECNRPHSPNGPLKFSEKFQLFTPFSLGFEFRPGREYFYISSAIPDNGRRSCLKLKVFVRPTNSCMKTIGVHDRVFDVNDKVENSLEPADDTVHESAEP
For “ECK soluble receptor (purified extracellular domain) (from UniProt P29317 24-537)”, the IC50 was 5 µg/mL.
As for “HEK8 soluble receptor (purified extracellular domain) (from UniProt P54764 20-547)”, the IC50 is 10.5 µg/mL.
The figure for “HEK4 receptor extracellular domain (HEK4-X), produced in CHO cells (from UniProt P29320 21-541)” is 0.55 µg/mL.

The IC50 is the concentration that gives 50% inhibition.
